# From IntAct's records for PubMed 12571249
# B1: Syndecan-4 (Rattus norvegicus (Rat)), P34901 (parent)
# chain: MAPVCLFAPLLLLLLGGFPVAPGESIRETEVIDPQDLLEGRYFSGALPDDEDAGGLEQDSDFELSGSGDLDDTEEPRTFPEVISPLVPLDNHIPENAQPGIRVPSEPKELEENEVIPKRVPSDVGDDDVSNKVSMSSTSQGSNIFERTEVLAALIVGGVVGILFAVFLILLLVYRMKKKDEGSYDLGKKPIYKKAPTNEFYA
# Variants of: B1
# Settings: with kpca_human PRKCA
row,Variant,effect of a mutation on the interaction
1,MAPVCLFAPLLLLLLGGFPVAPGESIRETEVIDPQDLLEGRYFSGALPDDEDAGGLEQDSDFELSGSGDLDDTEEPRTFPEVISPLVPLDNHIPENAQPGIRVPSEPKELEENEVIPKRVPSDVGDDDVSNKVSMSSTSQGSNIFERTEVLAALIVGGVVGILFAVFLILLLVYRMKKKDEGSYDLGKKPIFKKAPTNEFYA [Y192F],disrupting interaction
